Assay [1] has as its target T1, CD16a(V) (UniProt P08637 17-208).
T1 construct: His-tagged; also called Fcγ receptor CD16a(V)
Put plainly: SPR (Biacore), His-tagged FcγR captured on anti-His chip, antibody as analyte.
Experimental: (§1) Affinity to FcγRs was measured by Biacore. A CM5 chip was prepared using standard amine immobilisation Biacore procedures. Upon insertion of a CM5 chip the system was primed and then normalised with BIA-normalizing solution (Biacore Preventative Maintenance Kit 2). The chip was added to the system with Phosphate Buffered Saline Tween-20 (PBS-T) running buffer; prior to immobilisation the chip surface was primed with three injections of 50 mM NaOH. FcγRs were immobilised on the chip surface using a His-tag capture system. The anti-His tag chip was prepared according to the Biacore kit instructions, with ˜12000 RU's of the antibody deposited on all 4 flow cells. To remove non-covalently bound material from all the chip flow cells, three 30 second 10 mM glycine pH 1.5 washes were performed. The Fcγ receptors were diluted in PBS-T to a range of 0.5-2 μg/mL, with 2.5-5.0 μL injected onto the chip generating capture levels between 60 and 200 RU's. Antibodies were diluted into PBS-T prior to analysis. Single cycle kinetics were used to estimate the steady state affinity. For each single cycle analysis cycle a titration of 5 antibody concentrations were injected over the FcγR ligand and then the dissociation of the complex was measured. The surface was regenerated using the recommended solution, 10 mM glycine pH 1.5 for the anti-His capture surface. A double referencing method was employed in which data from the ligand bound capture surface (fc 2 and 4) were subtracted from the references surfaces where no ligand was captured (fc 1 and 3 respectively). Blank injections of buffer were run for every antibody titration cycle and then subtracted from analyte injection cycles, to correct for small changes in the ligand capture surface. All analysis was performed at 25° C. and the sample rack was incubated at 10° C. during experimental runs. Each experiment was run at least three times.

For assay [2], the target named is T2, monomeric His-tagged human FcRn (human, UniProt P55899 24-297; P61769 21-119).
T2 construct: also called hFcRn
Put plainly: SPR (Biacore 3000), antibody amine-coupled, monomeric His-tagged hFcRn injected, pH 6.0; pH 6.0.
Experimental: (§2) SPR was performed using a Biacore 3000 instrument with CM5 sensor chips coupled with anti-TNFα IgG1 antibodies (˜500 resonance units (RU)) using amine-coupling chemistry as described by the manufacturer. The coupling was performed by injecting 2.0 ug/mL of each protein in 10 mM sodium acetate, pH 4.5, using the amine-coupling kit (GE Healthcare). […] All SPR experiments were conducted at 25° C. with a flow rate of 40 ul/min. Binding data were zero-adjusted, and reference cell value subtracted. The Langmuir 1:1 ligand binding model provided by the BIAevaluation software (version 4.1) was used to determine the binding kinetics.

The target in assay [3] is T3, human TNFα (human, UniProt P01375 77-233).
T3 construct: also called recombinant TNFα
Put plainly: SPR (Biacore), antibody captured on Protein A, TNFα as analyte, single cycle kinetics, 25 C. A general note: SPR reads the build-up and loss of mass on a sensor chip optically.
Experimental: Affinity to TNFα was measured by Biacore. A CM5 chip was prepared using standard amine immobilisation Biacore procedures. Upon insertion of a CM5 chip the system was primed and then normalised with BIA-normalising solution (Biacore Preventative Maintenance Kit 2). The chip was added to the system with PBS-T running buffer; prior to immobilisation the chip surface was primed with three injections of 50 mM NaOH. Protein A was immobilised on the chip surface. For this, the protein was diluted to 5 μg/mL into 10 mM acetate buffer at pH 4.5 and injected so to generate a bound response of ˜1000 RU's in all 4 flow cells. To remove non-covalently bound material from all the chip flow cells, three 15 second 50 mM NaOH washes were performed. On the Protein A chip, antibody was captured in flow cells 2 and 4, with flow cells 1 and 3 used for reference subtraction. The trial antibodies were diluted in PBS-T to 10 nM and 2.5-7.5 uL injected to obtain 120 RU of captured antibody. […] For each single cycle analysis cycle a titration of 5 analyte concentrations were injected over the ligand and then the dissociation of the complex was measured. The surface was regenerated using glycine pH 1.7. A double referencing method was employed in which data from the ligand bound capture surface (fc 2 and 4) were subtracted from the references surfaces where no ligand was captured (fc 1 and 3 respectively). Blank injections of buffer were run every 3-4 cycles and then subtracted from analyte injection cycles, to correct for small changes in the ligand capture surface. Repeat injections of analyte at the start and end of each analytical run were used to check for sample degradation, or changes in the instrument performance. All analysis was performed at 25° C. and the sample rack was incubated at 10° C. during experimental runs. Each experiment was run at least three times. A 1-to-1 binding model was used to fit the resulting kinetic data.

In the next assay the target is T4, CD64 (UniProt P12314 16-288, limits assumed).
T4 construct: His-tagged (captured on an anti-His chip); also called Fcγ receptor CD64
In words: SPR (Biacore), His-tagged FcγR captured on anti-His chip, antibody as analyte.

Another assay has as its target T5, CD32a(H) (UniProt P12318 36-218).
T5 construct: His-tagged; also called Fcγ receptor CD32a(H)
T5 sequence (looked up): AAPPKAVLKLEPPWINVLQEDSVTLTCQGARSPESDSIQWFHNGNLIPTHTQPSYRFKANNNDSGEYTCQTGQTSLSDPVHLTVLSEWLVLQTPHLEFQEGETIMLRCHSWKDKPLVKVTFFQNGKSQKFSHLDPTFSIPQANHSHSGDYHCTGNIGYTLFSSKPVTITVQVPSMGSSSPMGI
The assay is described as above.

Another assay concerns the target T6, CD32b (UniProt P31994 46-217).
T6 construct: His-tagged; also called Fcγ receptor CD32b
T6 sequence (looked up): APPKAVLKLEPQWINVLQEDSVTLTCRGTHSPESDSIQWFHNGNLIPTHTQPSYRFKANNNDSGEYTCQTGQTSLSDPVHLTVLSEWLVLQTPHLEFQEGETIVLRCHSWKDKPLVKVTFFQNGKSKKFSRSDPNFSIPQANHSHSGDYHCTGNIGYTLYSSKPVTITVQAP
The assay is described as above.

For assay [4], the target named is T2, monomeric His-tagged human FcRn. In words: SPR, pH 6.0; KD against that of Ab-wt; pH 6.0; fold change from wt.
Experimental: as §2
For a further assay, the target named is T7, CD16b(NA2) (UniProt O75015 17-200, limits assumed).
T7 construct: His-tagged
In words: SPR (Biacore), His-tagged FcγR captured on anti-His chip, antibody as analyte.

The target in the next assay is T8, CD16a(F) (UniProt P08637 17-208).
T8 construct: His-tagged
The description is as above.

Assay [5] addresses T3, human TNFα. Put plainly: cell-based or functional assay.
The target of assay [6] is T2, monomeric His-tagged human FcRn. In words: SPR, pH 6.0; KD against that of IFX; pH 6.0; fold change from IFX.
Experimental: as §2
Assay [7] concerns the target T1, CD16a(V). In words: SPR (Biacore), His-tagged FcγR captured; reference not named in the sentence (Ab-wt by Table 5).
Experimental: Affinity to FcγRs was measured by Biacore. A CM5 chip was prepared using standard amine immobilisation Biacore procedures. Upon insertion of a CM5 chip the system was primed and then normalised with BIA-normalizing solution (Biacore Preventative Maintenance Kit 2). The chip was added to the system with Phosphate Buffered Saline Tween-20 (PBS-T) running buffer; prior to immobilisation the chip surface was primed with three injections of 50 mM NaOH. FcγRs were immobilised on the chip surface using a His-tag capture system. The anti-His tag chip was prepared according to the Biacore kit instructions, with ˜12000 RU's of the antibody deposited on all 4 flow cells. To remove non-covalently bound material from all the chip flow cells, three 30 second 10 mM glycine pH 1.5 washes were performed. The Fcγ receptors were diluted in PBS-T to a range of 0.5-2 μg/mL, with 2.5-5.0 μL injected onto the chip generating capture levels between 60 and 200 RU's. Antibodies were diluted into PBS-T prior to analysis. Single cycle kinetics were used to estimate the steady state affinity. For each single cycle analysis cycle a titration of 5 antibody concentrations were injected over the FcγR ligand and then the dissociation of the complex was measured. The surface was regenerated using the recommended solution, 10 mM glycine pH 1.5 for the anti-His capture surface. […]
The next assay concerns the target human C1q (human, UniProt P02745 23-245; P02746 28-253; P02747 29-245). Put plainly: ELISA: antibody titrated onto plate-coated human TNFα, then human C1q at 0.5 µg/mL, detected with rabbit anti-human C1q and HRP anti-rabbit IgG, absorbance 620 nm. For orientation: ELISA stands for enzyme-linked immunosorbent assay.
In another assay the target is T9, CD32a(R) (UniProt P12318 36-218).
T9 construct: His-tagged; also called Fcγ receptor CD32a(R)
T9 sequence (looked up): T5 sequence (looked up) with H132R
In words: SPR (Biacore), His-tagged FcγR captured on anti-His chip, antibody as analyte.

Where a chain is given by its changes, count along the chain named. Names may count otherwise.

The results in this text go back to patent US20240343793A1 (TILLOTTS PHARMA, published 2024).

T4 sequence (P12314 16-288 limits assumed): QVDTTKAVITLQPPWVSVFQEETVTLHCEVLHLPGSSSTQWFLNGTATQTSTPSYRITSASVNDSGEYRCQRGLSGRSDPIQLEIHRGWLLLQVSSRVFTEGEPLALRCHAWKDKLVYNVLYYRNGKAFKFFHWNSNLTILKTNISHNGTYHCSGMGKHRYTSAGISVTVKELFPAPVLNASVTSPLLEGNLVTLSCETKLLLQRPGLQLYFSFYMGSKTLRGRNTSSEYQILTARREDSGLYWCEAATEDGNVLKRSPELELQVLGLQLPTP
human C1q, sequence (P02745 23-245, chain 1 of 3): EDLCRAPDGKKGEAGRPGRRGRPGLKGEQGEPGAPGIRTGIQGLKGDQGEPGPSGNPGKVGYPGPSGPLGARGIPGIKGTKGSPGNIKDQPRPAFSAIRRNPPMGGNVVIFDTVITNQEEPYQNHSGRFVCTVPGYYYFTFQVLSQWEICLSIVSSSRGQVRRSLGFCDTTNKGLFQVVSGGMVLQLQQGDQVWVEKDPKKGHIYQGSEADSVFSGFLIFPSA
human C1q, sequence (P02746 28-253, chain 2 of 3): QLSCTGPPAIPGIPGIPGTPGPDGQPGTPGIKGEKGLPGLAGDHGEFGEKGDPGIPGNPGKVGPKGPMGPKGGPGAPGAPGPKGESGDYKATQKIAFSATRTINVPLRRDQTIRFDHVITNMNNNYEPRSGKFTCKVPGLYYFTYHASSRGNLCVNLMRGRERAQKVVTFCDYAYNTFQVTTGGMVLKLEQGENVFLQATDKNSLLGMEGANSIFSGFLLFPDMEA
human C1q, sequence (P02747 29-245, chain 3 of 3): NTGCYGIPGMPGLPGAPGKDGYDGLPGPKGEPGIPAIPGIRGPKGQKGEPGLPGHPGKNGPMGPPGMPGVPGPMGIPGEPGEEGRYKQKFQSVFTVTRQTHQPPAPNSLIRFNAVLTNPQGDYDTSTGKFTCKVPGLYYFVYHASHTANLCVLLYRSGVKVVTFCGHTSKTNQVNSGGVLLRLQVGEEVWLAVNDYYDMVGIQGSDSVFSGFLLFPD
T1 sequence (P08637 17-208 F176V limits assumed): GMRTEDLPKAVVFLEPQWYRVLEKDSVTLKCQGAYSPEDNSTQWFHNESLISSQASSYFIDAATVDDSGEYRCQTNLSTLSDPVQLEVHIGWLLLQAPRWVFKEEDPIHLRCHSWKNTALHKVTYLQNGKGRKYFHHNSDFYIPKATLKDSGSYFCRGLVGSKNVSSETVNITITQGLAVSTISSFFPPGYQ
T2 sequence (P55899 24-297 limits assumed, chain 1 of 2): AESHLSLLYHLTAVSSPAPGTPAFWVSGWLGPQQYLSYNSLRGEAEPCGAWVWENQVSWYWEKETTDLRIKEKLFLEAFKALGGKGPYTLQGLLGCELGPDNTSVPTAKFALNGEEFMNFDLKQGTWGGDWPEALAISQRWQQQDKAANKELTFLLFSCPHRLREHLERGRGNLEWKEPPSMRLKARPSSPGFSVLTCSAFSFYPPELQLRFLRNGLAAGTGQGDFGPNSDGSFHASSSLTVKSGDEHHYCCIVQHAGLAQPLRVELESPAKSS
T2 sequence (P61769 21-119 limits assumed, chain 2 of 2): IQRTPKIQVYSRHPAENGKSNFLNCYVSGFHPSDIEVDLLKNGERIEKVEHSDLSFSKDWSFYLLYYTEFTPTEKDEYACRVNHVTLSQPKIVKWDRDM
T3 sequence (P01375 77-233 limits assumed): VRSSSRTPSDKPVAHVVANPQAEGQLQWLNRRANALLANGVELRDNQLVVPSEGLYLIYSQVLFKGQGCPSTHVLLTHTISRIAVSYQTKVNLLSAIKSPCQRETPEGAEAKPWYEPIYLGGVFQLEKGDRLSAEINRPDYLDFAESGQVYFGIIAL
T8 sequence (P08637 17-208 limits assumed): as the sequence (P08637 17-208 F176V limits assumed) above, with V160F counted along it
T7 sequence (O75015 17-200 N65S limits assumed): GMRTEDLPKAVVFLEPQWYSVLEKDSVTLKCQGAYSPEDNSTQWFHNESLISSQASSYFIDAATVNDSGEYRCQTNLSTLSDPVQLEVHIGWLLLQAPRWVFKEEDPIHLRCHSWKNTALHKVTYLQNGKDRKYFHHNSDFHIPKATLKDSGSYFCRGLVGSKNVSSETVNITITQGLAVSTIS
Experimental for CD16a(F): as §1
Experimental for CD16b(NA2): as §1
Experimental for CD32a(H): as §1
Experimental for CD32a(R): as §1
Experimental for CD32b: as §1
Experimental for CD64: as §1
Experimental for human C1q: ELISA was performed using 96-well MaxiSorp plates where the wells were coated with human TNFα diluted to 1 μg/mL in PBS. After incubation O/N at 4° C., the plates were blocked with PBS containing 4% skimmed milk for 1 h and washed four times with PBS containing 0.05% Tween-20 (PBS-T). Then, titrated amounts of the anti-TNFα IgG antibodies were diluted in PBS-T, added and incubated for 1 h at RT. After washing using PBS-T, human C1q (0.5 μg/mL) was diluted in 0.1 M Veronal buffer (0.25 mM CaCl₂ and 0.8 mM MgCl₂ pH 7.2), added to the wells and incubated for 1 h. Subsequently, the wells were washed as above before rabbit anti-human C1q diluted 1:5000 in PBS-T was added to the wells and incubated for 1 h. After washing, an HRP-conjugated anti-rabbit IgG from donkey diluted 1:5000 in PBS-T was added. Subsequently, the wells were washed and 100 μL 3,3′,5,5′-Tetramethylbenzidine substrate was added to each well. The absorbance was measured at 620 nm using a Sunrise spectrophotometer.

B1: Ab-wt (antibody, human IgG1, kappa)
heavy: not shown
light: DIQMTQSPSSLSASVGDRVTIKCQASQSIFSGLAWYQQKPGKAPKLLIYGASKLASGVPSRFSGSGSGTEFTLTISGLQPADFATYYCQSYYYSSSSSDGSYAFGGGTKLTVLGRTVAAPSVFIFPPSDEQLKSGTASVVCLLNNFYPREAKVQWKVDNALQSGNSQESVTEQDSKDSTYSLSSTLTLSKADYEKHKVYACEVTHQGLSSPVTKSFNRGEC
notes: Human IgG1 anti-TNFα antibody with wild-type Fc; also called parent antibody; wild-type antibody
On to B1, for which the Kd (as a rule, a measure of binding affinity in units of concentration) is 184 nM in the assay with CD16a(V) [1]; 1000 nM in assay [2]; 0.00413 nM with human TNFα [3]; 2.92 nM with CD64; 670 nM with CD32a(H); 3140 nM in the assay with CD32b. Further, the koff (usually the first-order rate constant of dissociation) in the assay with human TNFα [3] was 3.45e-05 s⁻¹. In the assay with human TNFα [3], the kon (as a rule, a measure of how fast the partners come together) amounted to 8.37e+06 M⁻¹ s⁻¹.

B2: Ab-REW-2FF (antibody, human IgG1, kappa)
heavy: EVQLVESGGGLVQPGGSLRLSCKASGIDFNNYGIGWVRQAPGKGLEWITYIYPGFAITNFANSVKGRFTISSDNSKNTVYLQMNSLRAEDTAVYYCARDPVYATSSGYFDLWGQGTLVTVSSASTKGPSVFPLAPSSKSTSGGTAALGCLVKDYFPEPVTVSWNSGALTSGVHTFPAVLQSSGLYSLSSVVTVPSSSLGTQTYICNVNHKPSNTKVDKKVEPKSCDKTHTCPPCPAPELLGGPSVFLFPPKPKDTLMISRTPEVTCVVVDVSHEDPEVKFNWYVDGVEVHNAKTKPREEQYNSTYRVVSVLTVLHRDWLNGKEYKCKVSNKALPAPIEKTISKAKGQPREPQVYTLPPSREEMTKNQVSLTCLVKGFYPSDIAVEWESNGQPENNYKTTPPVLDSDGSFFLYSKLTVDKSRWQQGNVFSCSVEHEALHWHYTQKSLSLSPGK
light: B1 light
modifications: N-glycans at N297 (EU numbering) with greatly reduced fucose (13% fucosylated), made with 2-deoxy-2-fluoro-fucose (2FF) in the culture medium
notes: IgG1; also called non-fucosylated variant of Ab-REW
As to B2, the “Fold change from wt” value in assay [4] is 160 fold. Moreover, the Kd with CD16a(V) [1] turned out to be 33.5 nM; in the assay with CD16b(NA2), 400 nM; with CD16a(F), 150 nM; in assay [2], 6.24 nM; with CD32a(R), 1450 nM; with CD64, 2.93 nM. Also, the figures for the Kd with CD32a(H) and in the assay with CD32b were 1870 nM and 1130 nM, respectively. Moreover, the “IC50 (read off the curve)” value with human TNFα [5] is around 0.007 µg/mL. In assay [6], the “Fold change from IFX” value was found to be 68.1 fold. Further, in the assay with CD16a(V) [7], the “fold increase in affinity” value turned out to be 5.5 fold. The same molecule registered a kon in the assay with human TNFα [3] of 5.8e+06 M⁻¹ s⁻¹. The EC50 (read off the curve) (usually the midpoint of the concentration-response curve) in the assay with human C1q was around 0.6 µg/mL.

B3: Ab-REW (antibody, human IgG1, kappa)
heavy: B2 heavy
light: B1 light
notes: IgG1; also called REW containing variant; Q311R/M428E/N434W variant of Ab-wt
For the molecule B3, the “Fold change from wt” value in assay [4] worked out at 178 fold. Further, the Kd was 280 nM with CD16a(V) [1]; 1650 nM with CD16b(NA2); 2410 nM in the assay with CD16a(F); 5.61 nM in assay [2]; 0.0033 nM with human TNFα [3]; 1600 nM with CD32a(R). Also, the Kd with CD64 was 2.8 nM; with CD32a(H) it was 780 nM; with CD32b, 1210 nM. Further, the “IC50 (read off the curve)” value with human TNFα [5] is around 0.007 µg/mL. Besides, the “Fold change from IFX” value in [6] was found to be 75.8 fold. The molecule further yielded a koff with human TNFα [3] of 2.04e-05 s⁻¹. Also, the kon with human TNFα [3] was found to be 6.22e+06 M⁻¹ s⁻¹. In addition, in the assay with human C1q, the “EC50 (read off the curve)” value is around 0.4 µg/mL.

B4: infliximab (antibody)
chain 1: not shown
chain 2: DILLTQSPAILSVSPGERVSFSCRASQFVGSSIHWYQQRTNGSPRLLIKYASESMSGIPSRFSGSGSGTDFTLSINTVESEDIADYYCQQSHSWPFTFGSGTNLEVKRTVAAPSVFIFPPSDEQLKSGTASVVCLLNNFYPREAKVQWKVDNALQSGNSQESVTEQDSKDSTYSLSSTLTLSKADYEKHKVYACEVTHQGLSSPVTKSFNRGEC
With B4, in the assay with human C1q, the “EC50 (read off the curve)” value is around 0.5 µg/mL.
